Reference: publication PMC2121020 (The Journal of Cell Biology, 1996)

T1: CD44 of BHK cells (hamster (endogenous in BHK), UniProt Q60522 23-431)
T1 sequence: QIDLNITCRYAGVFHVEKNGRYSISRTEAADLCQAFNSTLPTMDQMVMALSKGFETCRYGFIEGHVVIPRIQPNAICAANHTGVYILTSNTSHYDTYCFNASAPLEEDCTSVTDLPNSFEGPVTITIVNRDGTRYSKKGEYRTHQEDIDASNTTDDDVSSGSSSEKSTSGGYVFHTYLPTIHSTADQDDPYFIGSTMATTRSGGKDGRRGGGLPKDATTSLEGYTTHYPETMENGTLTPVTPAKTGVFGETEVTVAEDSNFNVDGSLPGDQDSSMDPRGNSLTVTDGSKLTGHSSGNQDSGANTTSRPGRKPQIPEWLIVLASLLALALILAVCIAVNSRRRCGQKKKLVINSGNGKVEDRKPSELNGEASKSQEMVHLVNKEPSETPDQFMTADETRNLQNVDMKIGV

B1: recombinant mouse moesin (natural protein)
chain: MPKTISVRVTTMDAELEFAIQPNTTGKQLFDQVVKTIGLREVWFFGLQYQDTKAFSTWLKLNKKVTAQDVRKESPLLFKFRAKFYPEDVSEELIQDITQRLFFLQVKEGILNDDIYCPPETAVLLASYAVQSKYGDFNKEVHKSGYLAGDKLLPQRVLEQHKLNKDQWEERIQVWHEEHRGMLREDAVLEYLKIAQDLEMYGVNYFSIKNKKGSELWLGVDALGLNIYEQNDRLTPKIGFPWSEIRNISFNDKKFVIKPIDKKAPDFVFYAPRLRINKRILALCMGNHELYMRRRKPDTIEVQQMKAQAREEKHQKQMERALLENEKKKRELAEKEKEKIEREKEELMEKLKQIEEQTKKAQQELEEQTRRALELEQERKRAQSEAEKLAKERQEAEEAKEALLQASRDQKKTQEQLASEMAELTARISQLEMARKKKESEAVEWQQKAQMVQEDLEKTRAELKTAMSTPHVAEPAENEHDEQDENGAEASAELRADAMAKDRSEEERTTEAEKNERVQKHLKALTSELANARDESKKTANDMIHAENMRLGRDKYKTLRQIRQGNTKQRIDEFESM
B2: recombinant mouse radixin (natural protein)
chain: MPKPINVRVTTMDAELEFAIQPNTTGKQLFDQVVKTVGLREVWFFGLQYVDSKGYSTWLKLNKKVTQQDVKKENPLQFKFRAKFFPEDVSEELIQEITQRLFFLQVKEAILNDEIYCPPETAVLLASYAVQAKYGDYNKEIHKPGYLANDRLLPQRVLEQHKLTKEQWEERIQNWHEEHRGMLREDSMMEYLKIAQDLEMYGVNYFEIKNKKGTELWLGVDALGLNIYEHDDKLTPKIGFPWSEIRNISFNDKKFVIKPIDKKAPDFVFYAPRLRINKRILALCMGNHELYMRRRKPDTIEVQQMKAQAREEKHQKQLERAQLENEKKKREIAEKEKERIEREKEELMERLRQIEEQTVKAQKELEEQTRKALELEQERQRAKEEAERLDRERRAAEEAKSAIAKQAADQMKNQEQLAAELAEFTAKIALLEEAKKKKEEEATEWQHKAFAAQEDLEKTKEELKTVMSAPPPPPPPPVIPPTENEHDEQDENSAEASAELSSEGVMNHRSEEERVTETQKNERVKKQLQALSSELAQARDETKKTQNDVLHAENVKAGRDKYKTLRQIRQGNTKQRIDEFEAM
B3: recombinant mouse ezrin (natural protein)
chain: MPKPINVRVTTMDAELEFAIQPNTTGKQLFDQVVKTIGLREVWYFGLQYVDNKGFPTWLKLDKKVSAQEVRKENPVQFKFRAKFYPEDVAEELIQDITQKLFFLQVKDGILSDEIYCPPETAVLLGSYAVQAKFGDYNKEMHKSGYLSSERLIPQRVMDQHKLSRDQWEDRIQVWHAEHRGMLKDSAMLEYLKIAQDLEMYGINYFEIKNKKGTDLWLGVDALGLNIYEKDDKLTPKIGFPWSEIRNISFNDKKFVIKPIDKKAPDFVFYAPRLRINKRILQLCMGNHELYMRRRKPDTIEVQQMKAQAREEKHQKQLERQQLETEKKRRETVEREKEQMLREKEELMLRLQDYEQKTKRAEKELSEQIEKALQLEEERRRAQEEAERLEADRMAALRAKEELERQAQDQIKSQEQLAAELAEYTAKIALLEEARRRKEDEVEEWQHRAKEAQDDLVKTKEELHLVMTAPPPPPPPVYEPVNYHVQEGLQDEGAEPMGYSAELSSEGILDDRNEEKRITEAEKNERVQRQLLTLSNELSQARDENKRTHNDIIHNENMRQGRDKYKTLRQIRQGNTKQRIDEFEAM

Tests used:
CD44 of BHK cells = target: T1, CD44 of BHK cells; assay: co-sedimentation
[1] = target: B2; assay: pull-down
recombinant mouse moesin = target: B1; assay: pull-down
recombinant mouse ezrin = target: B3; assay: pull-down

amount recovered in the insoluble fraction (of about 0.8 ug added) (CD44 of BHK cells) [µg]	binding result [1]	Kd (recombinant mouse moesin) [nM]	binding result (recombinant mouse ezrin)	Binder
~0.05				B1
	binds	9.3 ± 1.6	binds	GST fusion protein with the cytoplasmic domain of mouse CD44 (domain or fragment) NSRRRCGQKKKLVINGGNGTVEDRKPSELNGEASKSQEMVHLVNKEPSETPDQCMTADETRNLQSVDMKIGV
~0.05				B2
~0.05				B3
